According to patent publication US20260158064A1 (NANJING PROBIO BIOTECH, published 2026):

How the values were obtained:
[1] = molecular target: human ROR1 expressed on CHO cells (CHO-K1/Human ROR1 stable cells) (human) (UniProt Q01973); assay: flow cytometry, 10 ug/ml on Human ROR1-CHO-K1 cells (curve 1), fluorescent secondary antibody
[2] = molecular target: mouse ROR1 expressed on CHO cells (CHO-K1/Mouse ROR1 stable cells) (mouse) (UniProt Q9Z139); assay: flow cytometry, 10 ug/ml on Mouse ROR1-CHO-K1 cells (curve 2), fluorescent secondary antibody
Chain of mouse ROR1 expressed on CHO cells (CHO-K1/Mouse ROR1 stable cells) (mouse) (Q9Z139 30-937): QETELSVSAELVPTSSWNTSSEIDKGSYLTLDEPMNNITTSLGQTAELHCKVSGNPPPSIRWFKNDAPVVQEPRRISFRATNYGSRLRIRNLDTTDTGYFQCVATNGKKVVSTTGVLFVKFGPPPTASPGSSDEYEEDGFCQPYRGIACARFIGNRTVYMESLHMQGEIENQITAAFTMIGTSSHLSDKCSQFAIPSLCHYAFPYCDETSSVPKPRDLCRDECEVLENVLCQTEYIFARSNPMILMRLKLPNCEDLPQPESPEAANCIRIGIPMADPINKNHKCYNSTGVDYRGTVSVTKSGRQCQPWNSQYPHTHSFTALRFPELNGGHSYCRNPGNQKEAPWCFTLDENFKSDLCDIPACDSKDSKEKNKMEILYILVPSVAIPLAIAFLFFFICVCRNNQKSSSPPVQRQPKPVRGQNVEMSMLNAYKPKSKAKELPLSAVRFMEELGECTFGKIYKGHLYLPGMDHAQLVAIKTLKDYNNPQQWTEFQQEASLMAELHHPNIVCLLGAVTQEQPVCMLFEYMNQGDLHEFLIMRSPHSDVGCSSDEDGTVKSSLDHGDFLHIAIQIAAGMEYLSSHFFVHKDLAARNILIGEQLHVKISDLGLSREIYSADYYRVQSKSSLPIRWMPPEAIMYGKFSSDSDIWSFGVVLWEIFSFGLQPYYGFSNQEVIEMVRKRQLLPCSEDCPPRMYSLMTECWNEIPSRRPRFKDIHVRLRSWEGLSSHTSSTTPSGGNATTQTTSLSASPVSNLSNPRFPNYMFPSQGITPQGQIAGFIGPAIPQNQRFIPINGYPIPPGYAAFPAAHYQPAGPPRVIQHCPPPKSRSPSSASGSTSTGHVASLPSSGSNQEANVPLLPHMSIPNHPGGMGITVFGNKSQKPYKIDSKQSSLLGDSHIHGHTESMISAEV

[3] = molecular target: mouse ROR1 expressed on CHO cells (CHO-K1/Mouse ROR1 stable cells) (mouse) (UniProt Q9Z139); assay: as above; remark: listed apart in the source
[4] = molecular target: human ROR1 expressed on CHO cells (CHO-K1/Human ROR1 stable cells) (human) (UniProt Q01973); assay: flow cytometry, 10 ug/ml on Human ROR1-CHO-K1 cells (curve 1), fluorescent secondary antibody; remark: listed apart in the source
[5] = molecular target: human ROR1 expressed on the engineered cell line CHO-K1/ROR1 (human) (UniProt Q01973); assay: flow cytometry of CHO-K1_ROR1 cells stained with the PE-labelled antibody; the CHO-K1 row of the same box prints 20.8
[6] = molecular target: human ROR1 expressed on the engineered cell line CHO-K1/ROR1 (human) (UniProt Q01973); assay: flow cytometry of CHO-K1_ROR1 cells stained with the PE-labelled antibody; the ROR1- gate prints 0.75
[7] = molecular target: mouse ROR1 expressed on CHO cells (CHO-K1/Mouse ROR1 stable cells) (mouse) (UniProt Q9Z139); assay: flow cytometry, 10 ug/ml antibody on Mouse ROR1-CHO-K1 cells (curve 2), fluorescent secondary antibody
[8] = molecular target: human ROR1 expressed on CHO cells (CHO-K1/Human ROR1 stable cells) (human) (UniProt Q01973); assay: flow cytometry, 10 ug/ml antibody on Human ROR1-CHO-K1 cells (curve 1), fluorescent secondary antibody
[9] = molecular target: human ROR1-His protein (fused with a His protein tag, Acrobiosystems, RO1-H522y) (human) (UniProt Q01973); assay: indirect ELISA, antigen coated at 1 ug/ml
Chain of human ROR1-His protein (fused with a His protein tag, Acrobiosystems, RO1-H522y) (human) (Q01973 30-403 limits assumed): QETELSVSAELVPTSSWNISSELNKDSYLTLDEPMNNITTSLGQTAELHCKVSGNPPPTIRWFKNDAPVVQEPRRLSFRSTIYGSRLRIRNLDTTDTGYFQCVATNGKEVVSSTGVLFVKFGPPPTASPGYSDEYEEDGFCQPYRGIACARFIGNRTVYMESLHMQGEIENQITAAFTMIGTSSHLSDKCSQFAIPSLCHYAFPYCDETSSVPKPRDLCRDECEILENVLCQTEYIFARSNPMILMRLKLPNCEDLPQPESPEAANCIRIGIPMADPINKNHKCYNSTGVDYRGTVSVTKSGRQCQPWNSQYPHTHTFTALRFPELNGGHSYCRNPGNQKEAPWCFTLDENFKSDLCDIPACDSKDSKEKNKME

[10] = molecular target: human ROR1 Kringle-His domain protein (amino acid sequence at positions 308-395, Acrobiosystems, RO1-H5223) (human) (UniProt Q01973); assay: indirect ELISA, antigen coated at 1 ug/ml
Chain of human ROR1 Kringle-His domain protein (amino acid sequence at positions 308-395, Acrobiosystems, RO1-H5223) (human) (Q01973 308-395 limits assumed, form in doubt): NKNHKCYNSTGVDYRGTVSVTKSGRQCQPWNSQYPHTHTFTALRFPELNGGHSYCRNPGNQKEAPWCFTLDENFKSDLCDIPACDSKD

[11] = molecular target: T1, human ROR1 Kringle-His domain protein (amino acid sequence at positions 308-395, Acrobiosystems, RO1-H5223) (human, UniProt Q01973 308-395); assay: indirect ELISA, antigen coated at 1 ug/ml
T1 construct: also called Human ROR1 Kringle-His protein; recombinant human ROR1 Kringle-His protein; not shown: His tag
T1 sequence (Q01973 308-395 limits assumed, form in doubt): as above
Experimental: (§1) Indirect ELISA was used to assess the binding capability of the above purified antibodies to human ROR1-related recombinant proteins. ELISA plates (Nunc) were coated with 1 μg/ml of human ROR1-His protein, human ROR1 Frizzled-His domain protein, and human ROR1 Kringle-His domain protein in 100 μl/well of CBS overnight at 4° C. The plates were washed with PBS-T (0.05% Tween) and blocked with 300 μl/well of PBS containing 3% skim milk at 37° C. for 1 hour. Subsequently, the blocking solution was discarded, and 100 μl of purified antibody at 8 μg/ml (about 100 nM) was added to the first well and diluted according to a 3-fold gradient to obtain a total of 11 test concentration gradients. The plates were then incubated for 1 hour at room temperature. The plates were washed 3 times with PBST and incubated with 100 μl/well of horseradish peroxidase-conjugated mouse anti-human IgG Fc fragment (GenScript) for 0.5 hours at 37° C. The plates were washed five times with PBST, a TMB chromogenic solution (GenScript) was then added, and the plates were incubated for 15 minutes at room temperature in the dark. The reaction was stopped by adding 50 μl of 1 M HCl stop solution (Sigma). The plates were read at 450 nm using a microplate reader. FIGS. 1-3 show the results of the ELISA experiment on the binding of 8 positive recombinant antibody clones to ROR1-related antigen proteins, and the EC₅₀ for each antibody is as shown in Table 2 below: the antigen binding capacity of the antibodies tested was all equal to or higher than that of the positive reference antibody R11-scFv.

[12] = molecular target: T2, human ROR1-His protein (fused with a His protein tag, Acrobiosystems, RO1-H522y) (human, UniProt Q01973 30-403); assay: indirect ELISA, antigen coated at 1 ug/ml
T2 construct: also called recombinant human ROR1-His protein; not shown: His tag
T2 sequence (Q01973 30-403 limits assumed): as the sequence (Q01973 30-403 limits assumed) above
Experimental: as §1

[13] = molecular target: T3, mouse ROR1 expressed on CHO cells (CHO-K1/Mouse ROR1 stable cells) (mouse, UniProt Q9Z139 30-937); assay: flow cytometry, antibody at 10 ug/ml on CHO cells
T3 construct: whole, on cells
T3 sequence (Q9Z139 30-937): as the sequence (Q9Z139 30-937) above
Experimental: CHO cells expressing human and mouse ROR1 and parental cells as the negative control for detection were collected and washed 3 times with PBS. 2.5×10⁵ test cells and 100 μl of purified antibody at 10 μg/ml were added to a 96-well plate, and the plate was incubated at 4° C. for 1 hour. The cells were then washed 3 times with PBS, 100 μl of iFluor-labeled goat anti-human IgG, an Fcγ-specific fragment antibody, was added, and the plate was incubated at 4° C. for 45 minutes. Finally, the cells were washed 3 times with PBS, and the signals were read using FACS BD Calibur.

[14] = molecular target: human ROR1 Frizzled-His domain protein (amino acid sequence at positions 165-305, Acrobiosystems, RO1-H5222) (human) (UniProt Q01973); assay: indirect ELISA, plate coated with human ROR1 Frizzled-His, HRP anti-human IgG Fc, OD450
Chain of human ROR1 Frizzled-His domain protein (amino acid sequence at positions 165-305, Acrobiosystems, RO1-H5222) (human) (Q01973 165-305 limits assumed, form in doubt): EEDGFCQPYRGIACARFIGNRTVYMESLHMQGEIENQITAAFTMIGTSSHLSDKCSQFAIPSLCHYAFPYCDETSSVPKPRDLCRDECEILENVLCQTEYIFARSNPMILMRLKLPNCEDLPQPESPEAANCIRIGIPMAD

Chain of human ROR1 expressed on CHO cells (CHO-K1/Human ROR1 stable cells) (human) (Q01973 30-937): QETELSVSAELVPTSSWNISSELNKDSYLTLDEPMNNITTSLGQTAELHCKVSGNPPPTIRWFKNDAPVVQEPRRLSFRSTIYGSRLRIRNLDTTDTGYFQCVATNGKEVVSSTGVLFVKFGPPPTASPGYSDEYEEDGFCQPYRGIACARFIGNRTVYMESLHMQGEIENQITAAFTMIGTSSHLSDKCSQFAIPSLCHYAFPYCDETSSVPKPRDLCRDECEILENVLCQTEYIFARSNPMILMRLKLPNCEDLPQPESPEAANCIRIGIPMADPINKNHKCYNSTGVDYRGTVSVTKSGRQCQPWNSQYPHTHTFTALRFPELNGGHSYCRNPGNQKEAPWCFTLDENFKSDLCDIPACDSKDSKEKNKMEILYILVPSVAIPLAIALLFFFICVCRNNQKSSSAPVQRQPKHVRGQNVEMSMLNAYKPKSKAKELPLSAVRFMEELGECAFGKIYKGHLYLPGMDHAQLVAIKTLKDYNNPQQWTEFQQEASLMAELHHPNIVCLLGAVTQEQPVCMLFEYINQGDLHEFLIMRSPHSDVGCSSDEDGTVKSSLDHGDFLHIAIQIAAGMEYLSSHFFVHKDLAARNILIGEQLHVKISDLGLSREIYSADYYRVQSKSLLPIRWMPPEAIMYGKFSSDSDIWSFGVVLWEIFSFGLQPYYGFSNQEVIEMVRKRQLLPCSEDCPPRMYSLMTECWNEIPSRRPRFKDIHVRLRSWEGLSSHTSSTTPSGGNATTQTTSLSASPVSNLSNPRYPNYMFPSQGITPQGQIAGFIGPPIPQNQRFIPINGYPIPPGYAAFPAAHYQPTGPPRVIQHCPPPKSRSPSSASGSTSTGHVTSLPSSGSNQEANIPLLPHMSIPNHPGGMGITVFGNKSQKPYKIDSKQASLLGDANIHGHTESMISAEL

Question: Which Geometric Mean : Alexa Fluor 647-H [1] does the source give for Human IgG (antibody) here?
Answer: 137

Question: And the Geometric Mean : Alexa Fluor 647-H [2]?
Answer: 135

Question: What about the Geometric Mean : Alexa Fluor 647-H [3] of the same molecule?
Answer: 93.3

Question: And the Geometric Mean : Alexa Fluor 647-H [4]?
Answer: 286

Question: Which Median : PE-H [5] does the source give for “PE anti-human ROR1 Antibody (BioLegend, Cat #357804)” here?
Answer: 13100

Question: And the ROR1+ gate, percent of cells [6]?
Answer: 99.2

Question: For Positive Ab- Cirmtuzumab (antibody), which Geometric Mean : Alexa Fluor 647-H [7] is on record?
Answer: 32600

Question: And the Geometric Mean : Alexa Fluor 647-H [8]?
Answer: 69000

Question: How did the EC50 [9] turn out when Positive reference antibody R11-scFv was run?
Answer: 0.104 µg/mL

Question: What about the EC50 [10] of the same molecule?
Answer: 1.17 µg/mL

B1: single domain antibody AHP15580 (Fc fusion)
chain: QVQLVESGGGVVQPGGSLRLSCAASGFVLRVNTVSWYRQAPGKQRELVALITSESNEYYDDSVKGRFTISRDNAKNTIYLHMNSLKPEDTGVYFCNFITTWGQGTQVTVSS
notes: VHH expressed from pcDNA3.4-Fc (HuIgG1); not shown: human IgG1 Fc of the pcDNA3.4-Fc (HuIgG1) expression vector
Question: What does the source list for B1?
Answer: EC50 [11]: 0.0294 µg/mL; EC50 [12]: 0.0407 µg/mL; binding result [13]: binds

B2: single domain antibody AHP15768 (Fc fusion)
chain: QVQLVESGGGSVQAGGSLRLSCAVSGRSISLYNMGWFRQAPGKEREFVSAINWSGGRTYYADSVKGRFTISRNNAKNTMYLQMNSLKPEDTATYYCAVDVEGWFRVSGDAAGYDYWGQGTQVTVSS
notes: as for B1
Question: Which results are given for B2?
Answer: EC50 [12]: 0.0203 µg/mL; binding result [13]: binds; EC50 (read off the curve) [14]: 0.1 µg/mL

B3: single domain antibody AHP16026 (Fc fusion)
chain: QVQLVESGGGLVQPGGSLRLSCAVLGSIEQINDINYYRWYRQPPGKQRDLVASINNSGELIYADSVKGRFFISRDKYTVYLEMRSLKAEDTAVYYCNAQDRGEYWGRGTQVTVSS
notes: as for B1
Question: How did the EC50 [11] turn out when B3 was run?
Answer: 1.91 µg/mL
